Measurements reported in publication PMC3516755.

Molecular target: rGlu^1-hPg[S741A] (human)
Experiment: SPR

Substance | koff [s⁻¹] | kon [M⁻¹ s⁻¹] | Kd [nM]
rSK_(NZ131) (natural protein) | 0.0087 | 1.02e+06 | 
rSK_(NS88.2) (natural protein) | 0.00314 | 15500 | 202
rSK_(NS455) (natural protein) | 0.00306 | 13200 | 232
rSK_(NS931) (natural protein) | 0.00467 | 375000 | 
rSK_(NS223) (natural protein) | 0.00178 |  | 255
rSK_(NS210) (natural protein) | 0.00737 | 302000 | 
rSK_(AP53) (natural protein) | 0.00246 |  | 321
rSK_(NS53) (natural protein) | 0.00616 | 1.18e+06 | 
